2 molecules from paper PMC6294489, “Structural basis for receptor-regulated SMAD recognition by MAN1” (Nucleic Acids Research, 2018) can be followed below.

The target in data set [1] is T1, His-GST-SMAD1C-2E H364Y-F366W (human, UniProt Q15797-1 259-465, H364Y | F366W | S463E | S465E).
T1 construct: SMAD1, human, MH2 domain, residues 259–465 with S463E, S465E, H364Y and F366W; also called H364Y-F366W double mutant of SMAD1; source: E. coli BL21(DE3) with pG-KJE8, purified (Ni-NTA, MonoQ); not shown: His tag, N-terminal, kept; GST, N-terminal, kept
Description: pull-down; His-GST-SMAD1C-2E, its mutant or His-GST-SMAD2C-2E (2.5 μM) on Ni-NTA resin, Trx-MAN1(762–890)-SDED (5 μM; 5, 10 and 20 μM in the comparison of SMAD1 with SMAD2); 50 mM Tris–HCl pH 9.0, 200 mM NaCl, 10 mM imidazole, 10% glycerol, 1 mM TCEP. The conditions noted are these: both partners purified.

Data set [2] has as its target T2, SMAD1C-2E (human, UniProt Q15797-1 259-465, S463E | S465E).
T2 construct: SMAD1, human, MH2 domain, residues 259–465 with S463E and S465E; Crystals: from pGEX-6P-SMAD1C-2E (GST cleaved); treated as the same molecule; also called phosphorylated-state mimic of the MH2 domain of SMAD1; source: E. coli BL21(DE3) with pG-KJE8; for ITC and thermal shift purified (Ni-NTA, HRV3C protease, MonoQ); not shown: GST, N-terminal, cleaved
Briefly: ITC; Trx-MAN1(762–890)-SDED (255 μM) injected into SMAD1C-2E (20 μM) or SMAD2C-2E (25 μM); 20°C; 100 mM Na2HPO4 pH 8.0, 150 mM NaCl, 1 mM TCEP; one set of sites model. As to conditions: both partners purified. On the technique in general: In ITC the heat of successive injections is recorded.

The next data set concerns the target SMAD2C-2E (human). Described as above.
In data set [3] the target is T2, SMAD1C-2E. Briefly: thermal shift assay; SMAD1C-2E or SMAD2C-2E (10 μM) with Trx-MAN1(762–911)-SDED (10 μM), SYPRO Orange; 10 mM Tris–HCl pH 9.0, 200 mM NaCl, 1 mM TCEP; 20 to 95°C. The conditions noted are these: both partners purified.

T2 sequence (Q15797 259-465 S463E/S465E): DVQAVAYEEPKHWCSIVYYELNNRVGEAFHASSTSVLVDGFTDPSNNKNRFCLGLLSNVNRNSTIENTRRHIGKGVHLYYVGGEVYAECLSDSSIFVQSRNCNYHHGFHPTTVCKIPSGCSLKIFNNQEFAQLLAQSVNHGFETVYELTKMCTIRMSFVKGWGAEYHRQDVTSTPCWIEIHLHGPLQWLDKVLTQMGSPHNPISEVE
T1 sequence (Q15797 259-465 H364Y/F366W/S463E/S465E): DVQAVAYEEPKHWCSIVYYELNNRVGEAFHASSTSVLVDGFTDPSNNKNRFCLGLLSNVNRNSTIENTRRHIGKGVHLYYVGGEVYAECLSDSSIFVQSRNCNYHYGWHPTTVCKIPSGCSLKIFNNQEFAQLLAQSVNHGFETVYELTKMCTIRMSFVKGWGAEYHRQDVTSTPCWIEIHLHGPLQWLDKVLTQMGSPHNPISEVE

B1: Trx-MAN1(762–890)-SDED (domain or fragment, human, UniProt Q9Y2U8 762-890, looked up)
chain: SKVWQGQAFHLDRRNSPPNSLTPCLKIRNMFDPVMEIGDQWHLAIQEAILEKCSDNDGIVHIAVDKNSREGCVYVKCLSPEYAGKAFKALHGSWFDGKLVTVKYLRLDRYHHRFPQALTSNTPLKPSNK
notes: MAN1, human, residues 762–890 (ULM and UHM domain); Layout: His-tag, HRV3C site, Trx, Gly-Ser, MAN1, Ser-Asp-Glu-Asp; His tag cut off with HRV3C; source: E. coli Rosetta (DE3), purified (Ni-NTA, HRV3C protease, MonoQ); not shown: His tag, N-terminal, cleaved; Trx, N-terminal, kept; SDED (Ser-Asp-Glu-Asp), C-terminal, kept
Turning to B1, the binding result in data set [1] is listed as “binds”. For the same molecule, the Kd (usually the free concentration of one partner at which half of the binding sites on the other are occupied at equilibrium, for simple one-to-one binding) with SMAD1C-2E [2] came out at 350 nM; with SMAD2C-2E (human), 3300 nM.

B2: Trx-MAN1(762–911)-SDED (domain or fragment, human, UniProt Q9Y2U8 762-911, looked up)
chain: SKVWQGQAFHLDRRNSPPNSLTPCLKIRNMFDPVMEIGDQWHLAIQEAILEKCSDNDGIVHIAVDKNSREGCVYVKCLSPEYAGKAFKALHGSWFDGKLVTVKYLRLDRYHHRFPQALTSNTPLKPSNKHMNSMSHLRLRTGLTNSQGSS
notes: MAN1, human, residues 762–911 (ULM, UHM domain and C-terminal disordered region); source: E. coli Rosetta (DE3), purified (Ni-NTA, HRV3C protease, MonoQ); not shown: His tag, N-terminal, cleaved; Trx, N-terminal, kept; SDED (Ser-Asp-Glu-Asp), C-terminal, kept
On to B2, for which the “Tm of SMAD1C-2E with the binder (48.5°C without)” value in the data set with SMAD1C-2E [3] was 50.5 °C.
